In test [1] the target is T1, B Cell Maturation Antigen (BCMA) on cells (UniProt Q02223 1-184, limits assumed).
T1 construct: whole, on cells; One molecule is used for the recombinant (CHOK1) and the endogenous (myeloma lines) cell-surface BCMA; also called tumor necrosis factor receptor superfamily member 17 (TNFRSF17); CD269
T1 sequence (looked up): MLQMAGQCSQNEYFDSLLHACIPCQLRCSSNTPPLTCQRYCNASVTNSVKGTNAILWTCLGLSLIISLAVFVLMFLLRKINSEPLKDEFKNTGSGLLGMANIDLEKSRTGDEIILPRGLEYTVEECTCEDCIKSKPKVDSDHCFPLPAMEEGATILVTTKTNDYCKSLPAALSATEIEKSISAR
In words: flow cytometry, serial diluted scFv on BCMA/CHOK1 cells. How it is done:
Cells were spun down at 1200 rpm for 6 minutes at 4° C. to remove primary antibodies. Cells were then washed once with 200 μL of full medium per well. Samples were detected with premixed anti-His Biotin Streptavidin Alexa fluor 647 by adding 100 μL of diluted secondary antibody and incubated at 4° C. for 30 minutes in the dark. Samples were spun down at 1200 rpm for 5 minutes at 4° C. and washed twice with 200 μL of 1×PBS per well. Reconstituted samples in 200 μL of 1×PBS and read on Attune NxT cytometer. Analysis was done by Attune NxT software plotting the overlaying the histogram of anti-BCMA scFvs binding onto both negative and target cell lines. […] The BCMA cell binding affinity for exemplary anti-BCMA antibodies (in scFv format) was also generated with serial diluted scFvs as described above.
On the technique in general: In flow cytometry, cells or beads pass a laser one at a time.

The target in test [2] is T2, Human BCMA-Fc (human, UniProt Q02223 1-54).
T2 construct: also called human BCMA-Fc protein; recombinant BCMA-Fc fusion protein; not shown: Fc part (captured by anti-human Fc antibody or Protein A)
T2 sequence (looked up): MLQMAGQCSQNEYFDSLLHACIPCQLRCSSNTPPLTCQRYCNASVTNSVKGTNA
Nature of the test: SPR, Biacore T200, BCMA-Fc captured on Protein A chip, scFv as analyte. As for the experimental part:
Kinetic analysis of anti-BCMA scFvs have been assessed by SPR technology with Biacore T200. The assay was run with Biacore T200 control software version 2.0. Protein A sensor chip was used to capture Fc fusion protein in the assay. For each cycle, 1 μg/mL of human BCMA-Fc protein was captured for 60 seconds at flow rate of 10 ul/min on flow cell 2 in 1×HBSP buffer on Protein A sensor chip. 2-fold serial diluted HIS tag purified anti-BCMA scFv was injected onto both reference flow cell 1 and BCMA-Fc captured flow cell 2 for 150 seconds at flow rate of 30 ul/min followed by wash for 300 seconds. The flow cells were then regenerated with Glycine pH2 buffer (GE) for 30 seconds at flow rate of 30 ul/mins. 8 concentration points from 300-0 nM was assayed per anti-BCMA scFv in a 96 well plate. The kinetics of scFvs binding to BCMA protein was analyzed with Biacore T200 evaluation software version 3.0. The specific binding response unit was derived from subtraction of binding to reference flow cell 1 from BCMA captured flow cell 2.
In general terms: Surface plasmon resonance follows binding to a sensor surface in real time, without labels.

The target in test [3] is T2, Human BCMA-Fc. In words: ELISA, human BCMA-Fc captured by anti-human Fc, scFv detected with anti-Flag HRP. As for the experimental part: An ELISA assay was developed to determine the EC₅₀ of anti-BCMA antibodies. Briefly, 384 well plate was immobilized with anti-human Fc antibody at final concentration of 2 μg/mL in 1×PBS in total volume of 25 uL per well. The plate was incubated overnight at 4° C. followed by blocking with 80 μL of superblock per well for 1 hour. Human BCMA-Fc was captured through immobilized anti-hFc antibody. Purified anti-BCMA scFvs were 2-fold serial titrated from 200 nM. 25 μL of diluted scFv was added to human BCMA immobilized wells and incubated for 1 hour with shaking. The BCMA binding was detected by adding 25 μL of anti-Flag HRP diluted at 1:5000 in 1×PBST. In between each step, the plate was washed 3 times with 1×PBST in a plate washer. The plate was then developed with 20 μL of TMB substrate for 5 mins and stopped by adding 20 μL of 2 N sulfuric acid. The plate was read at OD450 nm Biotek plate reader and then plotted in Prism 8.1 software.

For test [4], the target named is T1, B Cell Maturation Antigen (BCMA) on …. Nature of the test: flow cytometry on H929 multiple myeloma cells (endogenous BCMA).
Test [5] has the same target. Nature of the test: flow cytometry on MM1R multiple myeloma cells (endogenous BCMA).

In general, EC50 refers to the midpoint of the concentration-response curve. High values mean weaker potency, low ones greater potency. Broadly, the Kd is the equilibrium constant for the complex coming apart. Lower therefore signals higher affinity. As usually defined, the koff is the first-order rate constant of dissociation. Read a low koff as slow dissociation. As usually defined, the kon is the rate constant with which the complex forms.

B1: BC-02 (anti-BCMA antibody in scFv format) (scFv)
scFv: QVQLVQSGGGVVQPGGSLRLSCAASGFTFSSYGMHWVRQAPGKVLEWVAFIRYDGSNKYYADSVKGRFTISRDNSKNTLYLQMNSLRAEDTAVYYCAKDWDYYDSSGYYPDALGIWGQGTMVTVSSGGGGSGGGGSGGGGSEIVLTQSPSSLSASVGDRVTITCQASQDISNYLNWYQQKPGKAPKLLIYDASNLETGVPSRFSGSGSGTDFTFTISSLQPEDIATYYCQQYDNLPFTFGPGTKVDIK
notes: Human scFv from mRNA display, VH-(G4S)3-VL, expressed in E. coli periplasm, His-purified; not shown: C-terminal flag and 6xHis tag
Take B1: the EC50 in test [1] was 84 nM. In addition, in the test with Human BCMA-Fc [2], the Kd was 12.9 nM, the koff stood at 0.00118 s⁻¹ and the kon amounted to 91600 M⁻¹ s⁻¹. In the test with Human BCMA-Fc [3], this molecule yielded an EC50 of 1.92 nM.

B2: BC-03 (anti-BCMA antibody in scFv format) (scFv)
scFv: QMQLVQSGGGVVQPGGSLRLSCAASGFTFSSYGMHWVRQAPGKGLEWVAFIRYDGSDKYYADSVKGRFTISRDNSKNTLYLQMNSLRAEDTAVYYCAKDLTTITPGYWGQGTLVTVSSGGGGSGGGGSGGGGSVIQMTQSPSSLSASVGDRVTITCQASQDISNYLNWYQQKPGKAPKLLIYDASNLETGVPSRFSGSGSGTDFTFTISSLQPEDIATYYCQQYDNLPLTFGGGTKVEIK
notes: as for B1
In test [1], B2 showed an EC50 of 16.1 nM. In the test with Human BCMA-Fc [2], this molecule came in with a Kd of 11.9 nM, a koff of 0.00359 s⁻¹ and a kon of 302000 M⁻¹ s⁻¹. Moreover, the response with Human BCMA-Fc [3] was half-maximal at 2.32 nM (EC50).

B3: BC-01 (anti-BCMA antibody in scFv format) (scFv)
scFv: EVQLVQSGGGVVQPGGSLRLSCAASGFTFSSYGMHWVRQAPGKGLEWVAFIRYDGSNKYYADSVKGRFTISRDNSKNTLYLQMNSLRAEDTAVYYCAKDLWDGIVGAPAGYWGQGTLVTVSSGGGGSGGGGSGGGGSDVVMTQSPSSLSASVGDRVTITCQASQDISNYLNWYQQKPGKAPKLLIYDASNLETGVPSRFSGSGSGTDFTFTISSLQPEDIATYYCQQYDNLPLTFGGGTKVEIK
notes: as for B1
With B3, in test [1], the EC50 was determined as 18.9 nM. In the test with Human BCMA-Fc [2], this molecule showed a Kd of 3 nM, a koff of 0.000431 s⁻¹ and a kon of 144000 M⁻¹ s⁻¹. The EC50 with Human BCMA-Fc [3] was found to be 0.938 nM.

B4: BC-06 (anti-BCMA antibody in scFv format) (scFv)
scFv: EVQLVESGGGLVQPGRSLRLSCAASGFTFDDYAMHWVRQAPGKGLEWVSGISWNSGSIGYADSVKGRFTISRDNAKNSLYLQMNSLRAEDTALYYCAKVQPPGAFDIWGQGTMVTVSSGGGGSGGGGSGGGGSDIQLTQSPSFLSASVGDRVSITCRSTQGISSYLGWYQQKPGKAPKLLIYATSTLQSGVPSRFSGSGSGTEFTLTISSLQPEDFATYYCQQLYSFGQGTKLEIK
notes: Human scFv from mRNA display, VH-(G4S)3-VL, expressed in E. coli periplasm, His-purified; also called clone BC-06; not shown: C-terminal flag and 6xHis tag
Take B4: the EC50 in test [1] turned out to be 1.9 nM; in test [4] it was 2.85 nM; in test [5], 0.74 nM; with Human BCMA-Fc [3] it was 0.62 nM. This molecule also returned a Kd with Human BCMA-Fc [2] of 7.87 nM. Further, in the test with Human BCMA-Fc [2], the koff worked out at 0.00251 s⁻¹. In the test with Human BCMA-Fc [2], this molecule showed a kon of 319000 M⁻¹ s⁻¹.

B5: BC-07 (anti-BCMA antibody in scFv format) (scFv)
scFv: EVQLVESGGGLVQPGRSLRLSCAASGFTFDDYAMHWVRQAPGKGLEWVSGISWNSGSIGYADSVKGRFTISRDNAKNSLYLQMNSLRAEDTALYYCAKVQSPGAFDIWGQGTMVTVSSGGGGSGGGGSGGGGSDIQLTQSPSFLSASVGDRVSITCRSTQGISSYLGWYQQKPGKAPKLLIYATSTLQSGVPSRFSGSGSGTEFTLTISSLQPEDFATYYCQQLYSFGQGTKLEIK
notes: as for B1
B5: a half-maximal effect in test [1] (EC50) was put at 13.2 nM. In the test with Human BCMA-Fc [2], the Kd is 26.2 nM, the koff was 0.00592 s⁻¹ and the kon worked out at 226000 M⁻¹ s⁻¹. Moreover, the response with Human BCMA-Fc [3] was half-maximal at 0.802 nM (EC50).

B6: BC-05 (anti-BCMA antibody in scFv format) (scFv)
scFv: QMQLVQSGGGVVQPGGSLRLSCAASGFTFSSYGMHWVRQAPGKGLEWVAFIRYDGSNKYYADSVKGRFTISRDNSKNTLYLQMNSLRAEDTAVYYCAKDWEDPLYYYDTPFWGQGTLVTVSSGGGGSGGGGSGGGGSVIWMTQSPSSVSASVGDIITITCQASQDINNYLNWYQLKPGKAPKLLIYDASNVETGVPSRFSGSGSGTDFTFTISSLQPEDTATYYCQQYDKLPYTFGQGTKLEIK
notes: as for B1
For B6, the EC50 in test [1] was 4.91 nM. In the test with Human BCMA-Fc [2], this molecule had a Kd of 10.4 nM, a koff of 0.000646 s⁻¹ and a kon of 62400 M⁻¹ s⁻¹. This molecule also had an EC50 in the test with Human BCMA-Fc [3] of 0.536 nM.

B7: BC-09 (anti-BCMA antibody in scFv format) (scFv)
scFv: QVQLVQSGGGVVQPGGSLRLSCAASGFTFSSYGMHWVRQAPGKGLEWVAFIRYDGSNKYYADSVKGRFTISRDNSKNTLYLQMNSLRAEDTAVYYCAKDLWEFGGDYADYWGQGTLVTVSSGGGGSGGGGSGGGGSNIQMTQSPSSLSASVGDRVTITCQASQDISNYLNWYQQKPGKAPKLLIYDASNLETGVPSRFSGSGSGTDFTFTISSLQPEDIATYYCQQYDNLPLTFGGGTKVEIK
notes: as for B1
In test [1], B7 registered a concentration giving a half-maximal response (EC50) of 5.28 nM. In the test with Human BCMA-Fc [2], this molecule displayed a Kd of 19.6 nM, a koff of 0.00407 s⁻¹ and a kon of 208000 M⁻¹ s⁻¹. The same molecule showed an EC50 with Human BCMA-Fc [3] of 0.597 nM.

B8: BC-08 (anti-BCMA antibody in scFv format) (scFv)
scFv: QVQLVQSGGGVVQPGRSLRLSCAASGFTFSSYAMHWVRQAPGKGLEWVAVISYDGSNKYYADSVKGRFTISRDNAENSVYLQMNSLRAEDTAVYYCARDEHQVVPNYRFDFWGQGSQVTVSSGGGGSGGGGSGGGGSQLVLTQPPSASGTPGQRVTISCSGSGSNIGSNDVSWYQQIPGTASKLLIYWNDQRPSGVPDRFSGSKSGTSASLAISGLQSEDEADYYCAAWDDSLNGWVFGGGTKLTVL
notes: as for B1
As for B8, a half-maximal response in test [1] (EC50) required 1 nM. In the test with Human BCMA-Fc [2], this molecule returned a Kd of 0.653 nM, a koff of 0.00116 s⁻¹ and a kon of 1.78e+06 M⁻¹ s⁻¹. In addition, the EC50 with Human BCMA-Fc [3] stood at 0.299 nM.

The values above are taken from patent publication US20260097076A1 (ELPIS BIOPHARMACEUTICALS, published 2026).
